Starred links: 1 amine or outer side, 2 acyl side, 3 side chain; linkers in the order of their positions; H or OH if unused. Non-standard residues stand in square brackets, D forms with d. Groups on a side chain read outwards from the residue. No end group written: not given here. *: point of attachment. C20 diacid = O=C(O)CCCCCCCCCCCCCCCCCCC(=O)*; C18 diacid = O=C(O)CCCCCCCCCCCCCCCCC(=O)*; αMePhe(2-F) = C[C@](N)(Cc1ccccc1F)C(=O)O; γGlu = O=C(O)[C@H](CCC(=O)[*:2])N[*:1]; αMeL = CC(C)C[C@](C)(N)C(=O)O; AEEA = NCCOCCOCC(=O)O; Aib = CC(C)(N)C(=O)O
T1: human glucose-dependent insulinotropic polypeptide (GIP) receptor (human), P48546
T1 chain: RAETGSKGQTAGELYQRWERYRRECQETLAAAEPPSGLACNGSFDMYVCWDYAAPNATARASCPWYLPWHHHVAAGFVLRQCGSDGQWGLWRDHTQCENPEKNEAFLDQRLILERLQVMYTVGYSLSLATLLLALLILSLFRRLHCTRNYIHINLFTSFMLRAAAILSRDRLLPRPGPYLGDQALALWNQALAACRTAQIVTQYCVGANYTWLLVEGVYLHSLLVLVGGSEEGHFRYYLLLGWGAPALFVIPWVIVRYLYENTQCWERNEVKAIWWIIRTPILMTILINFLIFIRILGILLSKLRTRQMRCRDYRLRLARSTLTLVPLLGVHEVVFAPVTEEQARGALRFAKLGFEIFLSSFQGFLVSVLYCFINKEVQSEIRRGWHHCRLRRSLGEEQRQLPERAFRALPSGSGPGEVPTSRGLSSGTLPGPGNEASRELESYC

B1: Example 94 (peptide)
peptide: Y[Aib]EGT[αMePhe(2-F)]ISDYSIALDKIHQ[Aib]EFVNYK([AEEA-AEEA-γGlu-C18 diacid])LAGGPSSGAPPPS-NH2
modifications: N-terminus assumed
SMILES: CC[C@H](C)[C@H](NC(=O)[C@H](CO)NC(=O)[C@H](Cc1ccc(O)cc1)NC(=O)[C@H](CC(=O)O)NC(=O)[C@H](CO)NC(=O)[C@@H](NC(=O)[C@](C)(Cc1ccccc1F)NC(=O)[C@@H](NC(=O)CNC(=O)[C@H](CCC(=O)O)NC(=O)C(C)(C)NC(=O)[C@@H](N)Cc1ccc(O)cc1)[C@@H](C)O)[C@@H](C)CC)C(=O)N[C@@H](C)C(=O)N[C@@H](CC(C)C)C(=O)N[C@@H](CC(=O)O)C(=O)N[C@@H](CCCCN)C(=O)N[C@H](C(=O)N[C@@H](Cc1c[nH]cn1)C(=O)N[C@@H](CCC(N)=O)C(=O)NC(C)(C)C(=O)N[C@@H](CCC(=O)O)C(=O)N[C@@H](Cc1ccccc1)C(=O)N[C@H](C(=O)N[C@@H](CC(N)=O)C(=O)N[C@@H](Cc1ccc(O)cc1)C(=O)N[C@@H](CCCCNC(=O)COCCOCCNC(=O)COCCOCCNC(=O)CC[C@H](NC(=O)CCCCCCCCCCCCCCCCC(=O)O)C(=O)O)C(=O)N[C@@H](CC(C)C)C(=O)N[C@@H](C)C(=O)NCC(=O)NCC(=O)N1CCC[C@H]1C(=O)N[C@@H](CO)C(=O)N[C@@H](CO)C(=O)NCC(=O)N[C@@H](C)C(=O)N1CCC[C@H]1C(=O)N1CCC[C@H]1C(=O)N1CCC[C@H]1C(=O)N[C@@H](CO)C(N)=O)C(C)C)[C@@H](C)CC
B2: Example 118 (peptide)
peptide: Y[Aib]EGTFISDYSI[αMeL]LDKIRQ[Aib]DFVEYK([AEEA-AEEA-γGlu-C20 diacid])LEAGPSSGAPPPS-NH2
modifications: N-terminus assumed
SMILES: CC[C@H](C)[C@H](NC(=O)[C@H](CCCCN)NC(=O)[C@H](CC(=O)O)NC(=O)[C@H](CC(C)C)NC(=O)[C@](C)(CC(C)C)NC(=O)[C@@H](NC(=O)[C@H](CO)NC(=O)[C@H](Cc1ccc(O)cc1)NC(=O)[C@H](CC(=O)O)NC(=O)[C@H](CO)NC(=O)[C@@H](NC(=O)[C@H](Cc1ccccc1)NC(=O)[C@@H](NC(=O)CNC(=O)[C@H](CCC(=O)O)NC(=O)C(C)(C)NC(=O)[C@@H](N)Cc1ccc(O)cc1)[C@@H](C)O)[C@@H](C)CC)[C@@H](C)CC)C(=O)N[C@@H](CCCNC(=N)N)C(=O)N[C@@H](CCC(N)=O)C(=O)NC(C)(C)C(=O)N[C@@H](CC(=O)O)C(=O)N[C@@H](Cc1ccccc1)C(=O)N[C@H](C(=O)N[C@@H](CCC(=O)O)C(=O)N[C@@H](Cc1ccc(O)cc1)C(=O)N[C@@H](CCCCNC(=O)COCCOCCNC(=O)COCCOCCNC(=O)CC[C@H](NC(=O)CCCCCCCCCCCCCCCCCCC(=O)O)C(=O)O)C(=O)N[C@@H](CC(C)C)C(=O)N[C@@H](CCC(=O)O)C(=O)N[C@@H](C)C(=O)NCC(=O)N1CCC[C@H]1C(=O)N[C@@H](CO)C(=O)N[C@@H](CO)C(=O)NCC(=O)N[C@@H](C)C(=O)N1CCC[C@H]1C(=O)N1CCC[C@H]1C(=O)N1CCC[C@H]1C(=O)N[C@@H](CO)C(N)=O)C(C)C
B3: Example 99 (peptide)
peptide: Y[Aib]EGT[αMePhe(2-F)]ISDYSIALDKIHQ[Aib]DFVEYK([AEEA-AEEA-γGlu-C20 diacid])LEGGPSSGAPPPS-NH2
modifications: N-terminus assumed
SMILES: CC[C@H](C)[C@H](NC(=O)[C@H](CO)NC(=O)[C@H](Cc1ccc(O)cc1)NC(=O)[C@H](CC(=O)O)NC(=O)[C@H](CO)NC(=O)[C@@H](NC(=O)[C@](C)(Cc1ccccc1F)NC(=O)[C@@H](NC(=O)CNC(=O)[C@H](CCC(=O)O)NC(=O)C(C)(C)NC(=O)[C@@H](N)Cc1ccc(O)cc1)[C@@H](C)O)[C@@H](C)CC)C(=O)N[C@@H](C)C(=O)N[C@@H](CC(C)C)C(=O)N[C@@H](CC(=O)O)C(=O)N[C@@H](CCCCN)C(=O)N[C@H](C(=O)N[C@@H](Cc1c[nH]cn1)C(=O)N[C@@H](CCC(N)=O)C(=O)NC(C)(C)C(=O)N[C@@H](CC(=O)O)C(=O)N[C@@H](Cc1ccccc1)C(=O)N[C@H](C(=O)N[C@@H](CCC(=O)O)C(=O)N[C@@H](Cc1ccc(O)cc1)C(=O)N[C@@H](CCCCNC(=O)COCCOCCNC(=O)COCCOCCNC(=O)CC[C@H](NC(=O)CCCCCCCCCCCCCCCCCCC(=O)O)C(=O)O)C(=O)N[C@@H](CC(C)C)C(=O)N[C@@H](CCC(=O)O)C(=O)NCC(=O)NCC(=O)N1CCC[C@H]1C(=O)N[C@@H](CO)C(=O)N[C@@H](CO)C(=O)NCC(=O)N[C@@H](C)C(=O)N1CCC[C@H]1C(=O)N1CCC[C@H]1C(=O)N1CCC[C@H]1C(=O)N[C@@H](CO)C(N)=O)C(C)C)[C@@H](C)CC
B4: Example 5 (peptide)
peptide: Y[Aib]EGTFISDYSI[αMeL]LDKIHQ[Aib]DFVEYK([AEEA-AEEA-γGlu-C20 diacid])LEGGPSSGAPPPS-NH2
modifications: N-terminus assumed
SMILES: CC[C@H](C)[C@H](NC(=O)[C@H](CCCCN)NC(=O)[C@H](CC(=O)O)NC(=O)[C@H](CC(C)C)NC(=O)[C@](C)(CC(C)C)NC(=O)[C@@H](NC(=O)[C@H](CO)NC(=O)[C@H](Cc1ccc(O)cc1)NC(=O)[C@H](CC(=O)O)NC(=O)[C@H](CO)NC(=O)[C@@H](NC(=O)[C@H](Cc1ccccc1)NC(=O)[C@@H](NC(=O)CNC(=O)[C@H](CCC(=O)O)NC(=O)C(C)(C)NC(=O)[C@@H](N)Cc1ccc(O)cc1)[C@@H](C)O)[C@@H](C)CC)[C@@H](C)CC)C(=O)N[C@@H](Cc1c[nH]cn1)C(=O)N[C@@H](CCC(N)=O)C(=O)NC(C)(C)C(=O)N[C@@H](CC(=O)O)C(=O)N[C@@H](Cc1ccccc1)C(=O)N[C@H](C(=O)N[C@@H](CCC(=O)O)C(=O)N[C@@H](Cc1ccc(O)cc1)C(=O)N[C@@H](CCCCNC(=O)COCCOCCNC(=O)COCCOCCNC(=O)CC[C@H](NC(=O)CCCCCCCCCCCCCCCCCCC(=O)O)C(=O)O)C(=O)N[C@@H](CC(C)C)C(=O)N[C@@H](CCC(=O)O)C(=O)NCC(=O)NCC(=O)N1CCC[C@H]1C(=O)N[C@@H](CO)C(=O)N[C@@H](CO)C(=O)NCC(=O)N[C@@H](C)C(=O)N1CCC[C@H]1C(=O)N1CCC[C@H]1C(=O)N1CCC[C@H]1C(=O)N[C@@H](CO)C(N)=O)C(C)C

Key:
[1] = target: human glucagon receptor (human), P47871; assay: SPA, displacement of [125I]-Gcg from hGcgR membranes, 0.1% bacitracin
[2] = target: T1, human glucose-dependent insulinotropic …; assay: SPA, displacement of [125I]-GIP from hGIPR membranes, 0.1% bacitracin

Chain of human glucagon receptor (human), P47871 (P47871 26-477): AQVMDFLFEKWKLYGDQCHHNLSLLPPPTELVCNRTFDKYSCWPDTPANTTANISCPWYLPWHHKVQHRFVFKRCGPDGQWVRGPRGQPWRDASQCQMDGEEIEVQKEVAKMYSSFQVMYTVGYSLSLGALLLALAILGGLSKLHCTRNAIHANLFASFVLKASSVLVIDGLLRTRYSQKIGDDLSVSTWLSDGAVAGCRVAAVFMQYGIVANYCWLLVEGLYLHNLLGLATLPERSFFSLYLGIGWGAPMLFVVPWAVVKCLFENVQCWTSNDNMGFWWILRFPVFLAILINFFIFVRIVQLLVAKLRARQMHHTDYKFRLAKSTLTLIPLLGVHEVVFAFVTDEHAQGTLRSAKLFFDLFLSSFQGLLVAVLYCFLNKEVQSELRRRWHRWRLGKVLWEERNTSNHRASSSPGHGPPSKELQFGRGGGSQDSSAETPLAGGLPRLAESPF

Binder | Ki [1] [nM] | Ki [2] [nM]
B1 | 114 | 0.031
B2 |  | 0.0696
B3 | 174 | 0.0341
B4 | 619 | 0.0771

From patent US20210032299A1
